17 sequences from the DeepSol protein solubility set can be followed below.

The data set is described as follows: soluble on expression in E. coli; label from the status in PepcDB or PDB records.
As for “MGSDKIHHHHHHMMSGLVYRKRRRQNMTALERSWFEEAQQSMHGWDFSHLAGRWQTADLPWDYAALVREHLSADDRWLDIDTGGGELMGRFNPQPALTAVTEGWQPNIELLKQTVVKKGITLYPDAAEQLTAVPNSTFDIVTNSHGAMPVKRIAEVLKPGGRFVTQQVGATNNYALSRFFDEHYETAYPDNQLLTVMAQMQAAGFEILRAEQAYAALSFTDVGAIVYYATVIPWEFPHFDVARMLPKLHQLQSLLAINGRVTTFEDRFMIIARKLARRD”, the “soluble on expression in E. coli” value was “not soluble”.

Take “MWFFNKNLKVLAPCDGTIITLDEVEDEVFKERMLGDGFAINPKSNDFHAPVSGKLVTAFPTKHAFGIQTKSGVEILLHIGLDTVSLDGNGFESFVTQDQEVNAGDKLVTVDLKSVAKKVPSIKSPIIFTNNGGKTLEIVKMGEVKQGDVVAILK”: the “soluble on expression in E. coli” value is “soluble”.

Take “MREKLFWILKKYGVSDHIAKAFLEIPREEFLTKSYPLSYVYEDIVLVSYDDGEEYSTSSQPSLMALFMEWVGLDKGMRVLEIGGGTGYNAAVMSRVVGEKGLVVSVEYSRKICEIAKRNVERLGIENVIFVCGDGYYGVPEFSPYDVIFVTVGVDEVPETWFTQLKEGGRVIVPINLKLSRRQPAFLFKKKDPYLVGNYKLETRFITAGGNLGNLLERNRKLLREFPFNREILLVRSHIFVELVDLLTRRLTEIDGTFYYAGPNGVVEFLDDRMRIYGDAPEIENLLTQWESCGYRSFEYLMLHVGYNAFSHISCSI”: the “soluble on expression in E. coli” value is on record as “soluble”.

Consider “MTIASITLTNNRLEWQSLLPNTTPYEALFATASQLEPVAFSAYQPRLENGMTLFCHPQSQPRFMLIKAQESTDYLALIAQAVKALQPEASNLLGGDYLVHGHHVTWQSAQHGDERFAAQSTCLYQEWVEPEQLFGCVRMYKDQITLQPGLVHQVNGGVLILSVRALQAQPLMWLRLKQMIVQQRFDWLSTDETRPLPVHIPSMPLDLRLILVGDRLGLADFHDMEPELGDLAIYGEFEAELPLVDIEGMALWCGYINTLLQQKQLPALSADAWPVLFRQAVRYSGDQGSLPLCPQWLTQQLAEAALYAENDTISANALEAALNARNWRQNYLAERMQDEIELGQILVETEGHVVGQINALSVLEYPGHPHAFGEPARISCVVHLGDGEFVDVERKAELGGNIHAKGMMIMQAFLMSELELDQPLPFSASIVFEQSYGEVDGDSASLAELCALVSALSQQPINQQIAVTGSVDQFGNVQPIGGVNEKIEGFFETCQRRGLTGNQGVILPTTNVRHLCLNQAVVEAVQKGQFHLWAVDTVAEALPLLTGVTYDDEQQPSLLGAIQERIAQINPQDKRRWPWPLRWLNWFNQG”, for which the “soluble on expression in E. coli” value is on record as “soluble”.

As for “MIDLRKLTEVQRRLSRKIVEKPIDIAKVKRVGAVDVSYKNNFAKAAFVCVEFPSGEIIKTKTIVTTVEFPYIPTFFFLRETKPILLAVKDENFDVLLVEGHGKAHPRRYGLASHIGVILSKPTIGVAKRLLRGVSKDTYVKVGKAFVSVGNLITLNDAVRIVEKLLDENGYPKPLNIADKLSKRGESREKELEHHHHHH”, the “soluble on expression in E. coli” value was “not soluble”.

As for “GSHMAAQSGNDAAEVALYERLLQLRVLPGASDVHDVRFVFGDDSRCWIEVAMHGDHVIGNSHPALDPKSRATLEHVLTVQGDLAAFLVVARDMLLASL”, the “soluble on expression in E. coli” value was “soluble”.

Regarding “MSLLHKDYHHFALTALEERKLAQLPPYSFLSLFRAEANHTAQVEDFLRQVRETLRCNPWFDSECMVLGPTPAPLAKRAGKFRWQLLLQTPNRTLMQKILQSARPALQQLPLASKVRWSIDIDPQDLSEGHHHHHH”, the “soluble on expression in E. coli” value is reported as “soluble”.

Take “MGPVPIKLALVIPNYNHSAAISQALSELAALNLPCYLIDDGSNDETRYLLQSLAEQHDWVTLLQHPYNRGKGAAVMTGLRSAYRDGFTHALQVDADGQHNLSDIPAMLAKAQAKPDALISGKPEYDKSVPKGRLYGRYLTHFWVWVETLSFDIQDSMCGFRVYPLAATERLFSKQALTERMDFDIEILVKLYWQGVEILFHPTKVIYPENGVSHFQCVADNVRISKLHTRLFFGMLKRLPQLLRRKQAAKSTSSAHTATHWSAMKERGSYWGIKLLVESYRFGGHWLCRAIMYPVICYFFLTGKVSREASRDFLRRVQHLEPQHPQLNQPVGWRDSLNHFIAFGNAALDRIDAWCDRIQLSQVDFPDRQVLADQLESGKGAVLLVSHLGNLELCRAISIHQRKVKVNVMVLTSHAENFNNVLKQLNPNSSLNLIQVTELNPATSMLLQQKIEDGELVVIAGDRTSSHAQGRVVYAPFMGQDAAFPQGPFILAGLLDCPVYLMFCLREQGRYRVHLERFAETLKGPRAGRMERLQQAVYRYSERLEHYARREPLQWFNFFDFWRDDNQVNRATSAHKTTAALPEQERTTDRTEHLLEHHHHHH”: the “soluble on expression in E. coli” value was “soluble”.

For “MQEKIYQVAVGLIPGVGAATTKTLISYCGCAEQIFKTPKGKLKNIPGIGAVTVDNIYSASVLHEAESIVERAQKLDTQLLFYTDPDYPNRLKQIPDAPTLLYYKGSSALNPPKSIAIVGTRKATEYGRSVVRKLLEEIASYKPLVVSGLAYGIDIQAHRDALELGLETIGVMANGTNIIYPSVHKNTALKMLEQGGLLSEYTFDSIAEPMRFPARNRIIAGMTDATIVIEATQSGGALITAEIADSYDREVLAVPGRITDMASEGCNNLIKQNKAHALTSAADLIELLNWDITPSQQAHKHIILADLEEDELMIYAVLTDNEGIHIDELSWKSQLSMQKISSVLLEMEFKGIVKALPGKKFSLR”, the “soluble on expression in E. coli” value is given as “not soluble”.

Take “MERVNERREQNNPNGCCLRDEDFSQFNSEAFLRELAADLNEDDTNDLSSSLFATSRIPEEHIRSTGLVERAEHYNKSVDQRTMTDARIAFEEEQLKNGKSPNAGTSGMENLADSGTHVPRRGRGDYFGKLRSFENGVSFPSRPPLTSEHSSSGDSYFNNSHKTTPNYRRFANSNDSSRDNSQMEYKAENDASHTSQSSNRFGFNSQINRTDIHPPAARHTFNPAAAYNGKITPDFRFNYIPNAAVPAPSVVPVIATHPGVAPPSIVPSPIRIGQRYPKRPDNMPKPSSEPKHLNHNYYQIELYGATQEDRIAQRIEKTVRQTEAPVRRF”: the “soluble on expression in E. coli” value was “not soluble”.

For “MGSDKIHHHHHHMPIHLIWGNDYEACNREIEELINSVIDSSWKSFNYSQLDGNDPKQNLRALEEAQSAPLGSGGRIVLVRRSPFCNGCSIELGNKLEQVIKLIPDKTHLILSNANKPDKRLKTTKLIEKSIQSNTLSQEKSFILPLPWDINGQRNLVKNNLERLNLKMNYETIDLIVESIGNDSSLINTELQKLSLFSEAVNTNLTTDKPREISKELVKKLIQNNSTNALEIANSLLKGEKIIALNKIQSLLKNGEPALRLITTLTGQSRGWLWVHLLDSQGNQDVKEIAKLAGIANPKRIFVIRKQIQGKSLGTLLELMKKLLKIEASIKSGIKPIDSFKDNLLTDSKILANN”, the “soluble on expression in E. coli” value was “not soluble”.

Consider “MPPANGKKGKKGGAAKAAAPEEDFDAILAEMQLADAKTAAKEATKKDAKGGKGKANGSAAATAAPEEAKQAWQAEIAAMKPIDEQFPDGKFPHGIDESPYYLKGKDGRVATDRESNEEKKALDISYEEVWQDYRRSAEAHRQVRKYVKSWIKPGMTMIEICERLETTSRRLIKEQGLEAGLAFPTGCSLNHCAAHYTPNAGDTTVLQYGDVCKIDYGIHVRGRLIDSAFTVHFDPKFDPLVEAVREATNAGIKESGIDVRLCDVGEIVEEVMTSHEVELDGKSYVVKPIRNLNGHSIAQYRIHAGKTVPIVKGGEQTKMEENEIYAIETFGSTGKGYVHDDMETSHYMKNFELADEKIPLRLQKSKGLLNLIDKNFATLAFCRRWIDRLGETKYLMALKDLCDKGIVDPYPPLCDVKGCYTAQWEHTILMRPTVKEVVSRGDDY”, for which the “soluble on expression in E. coli” value was “not soluble”.

As to “MKWGFRWYGAAGDAIPLKHIRQIPGITGVVGTLLNKLPGDVWTVAEIQALKQSVEQEGLALLGIESVAIHDAIKAGTDQRDHYIDNYRQTLRNLGKCGISLVCYSFKPIFGWAKTDLAYENEDGSLSLLFDQAVVENMQPEDMYQLIHSQSKGFRLPGWEEERLQQFQELKAMYAGVTEEDLVENLRYFLERVIPVCEEENIKMGIHPDDPPWEIFGLPRITKNLADLKRILSLVDSPANGITFCTGSLGADPTNDLPTMIREIGHRINFVHFRNVKYLGEHRFEETAHPSVAGSLDMAELMQALVDVGYEGVIRPDHGRAIWDEKAMPGYGLYDRAMGLTYIQGLYEATKAKQNRKLEHHHHHH”, the “soluble on expression in E. coli” value is given as “soluble”.

Consider “MKYFLPLDVSLASAYLKATMSFKDPPTLQQLARRSLLKDEALTISALLNLPVQLFPPLFKDAFTSRQRKILSLMVAAWPFPVLPVGALGGIDHLETLKAVLDGLDLLMSQKDRPRWNLQVLDLGNAHQDFWDGWAGLLHEVCSQDVFGKNQPVGNHPIPGGKQTITIKMNLSLKYCRHSKYLNYLHWWAEQRKDGIQVICEKLEFTGPHSSIQELAIKSIHWDIYNLALIASCLGQMKNLQKLILMNIRRPPDLADLQEAHIVTEIFSEFSKLHKVHYLHVNNVYFLKERLDQMLRCFERPLETLAITHCRLSELDMRYLSQCPSIHQLKYLDMSYTTFKPSSHRFLGSLLERLTATLQTLKLECFHLTDFQIRDLLPGLSQCSQLTEVDIAMNEFSVVSLKKLLKHTANLTQLTLEKYPAPVEVYDDGHSVISDRFVQLCSELMNTLKGVRQAKQVYFVSMPCLRNYEFLIYNLKGLDSSEQLRRRGLSWALINGEQVSRDSLQL”, for which the “soluble on expression in E. coli” value is on record as “not soluble”.

“MGSDKIHHHHHHSSDDKDEQPILVTNVVMPASGTVFKPGEKVTIMAKGFQDNDEIMFDIRWPLQDEVLHEGYAKGGRGVITEKTATSITFLAPGHWPASTTEILLRRSGQMMSLGKISVADGQAPKDFQLYGIINSRSNTHRPHAIEYINLEKPQTAEIVRLADNQDFSCVVNLPGSWSLSGVWTKDDRRTTGLYDLSMNYWEKPGADQLVTMGIATANSVFGVYQGGDRLFVKTVNVMPYTRMYVPEKPDYGFLLPEGMKAEALSRYPCIQMSDGNILCSADNGDGTFSPVVLNGQNIEEKSIYVGEPIEAVALIPFWIVKPVEGMGTAKYTRVGGYIVSKRNGATITEGDGTEFRLWNPTTKMLDEPFTTFPNAACLVATLVSDDFKKQELYVLFDGSRNGRLIYVYDLLKGSWESLYPGGGFPYSEIVLAR”: the “soluble on expression in E. coli” value was “not soluble”.

For “HFESIQAVNKTLNKKGLPPIIVHFIEETLQDYELIGMLNNGYIKAIVLDSHKAKLWLNAMDDIKAHKKVPLRKNGNIAWVMRQNSPQLKAVVNKFIQKSRSGTLLGNVIYSKYIDNTNWLNKALNPKKIAQLEKLSA”, the “soluble on expression in E. coli” value is “not soluble”.

Turning to “MAHHHHHHMKRRCDLLEVHSVAARPHKRGGTETTREHHFPLYSHPMFRAARHNANAVQDAVAEQSDRVDPGALDAALENMVTQLVEQRLSRHEAEGDTSPTLAKKNFIVTESELLALLAEATHATPLSPRPQQPPSAFPPSRPEAIAALAAAAAASSPPPQQGPFIPNQGYHTTHPPLQSNGDAERRAGPPPRTQASLFSGAASALGGDEPDELNVVSVGALQQAALRSLGHMDEQAAPRLPPLSESVASTTSGPTTKQRHPPTMPLYSLLPCLVASPGLTAASVLPAIVSSSLNPSPSSVTFREMDRCPGTGTGLVAQQSVDAQQLHQVPDAVFAAMDVLMDGNNCCMRRRKRLVATNGNKAESLSLNPRCLPGSGGGASGGSCFAFGCGSKGASLNRMYVPVAQNTLPAPPPPRTASEAKARRILEGQRRKQRLHDQQQHLVSNSFSLAGGGNTAPLSSSLVEFRSDTTSLPTEPFRWRHIDRSGSRTHSSAHPAPLPAASSVSRSAAVVVGTASTLPLTQEASLTFTLRDIAGEPVYMQAISAANRCWPASLI”, the “soluble on expression in E. coli” value was “not soluble”.
